We go through 39 variants from the RNAGym collection of RNA variant scans (doi:10.7554/elife.80360).

B1: CPEB3 Ribozyme (parent)
chain: GGGGGCCACAGCAGAAGCGUUCACGUCGCGGCCCCUGUCAGAUUCUGGUGAAUCUGCGAAUUCUGCUGU

Variants of B1 are the subject of the data set. Nature of the data set: self-cleavage, relative activity (ratio to wild type); higher = more cleavage; co-transcriptional.
For GGGGGCCACAGCAGAAGCGUUCACGUCGCGACCCCUGUCAGAUUCUGGCGAAUCUGCGAAUUCUGCUGU [G31A U49C], the self-cleavage came to 0.938.
Take GGGGGCCACAGCAGAAGCGUUCACGUCGCGACCCCUGUCAGAUUCUGGAGAAUCUGCGAAUUCUGCUGU [G31A U49A]: the self-cleavage turned out to be 0.886.
GGGGGCCACAGCAGAAGCGUUCACGUCGCGACCCCUGUCAGAUUCUGGGGAAUCUGCGAAUUCUGCUGU [G31A U49G]: the self-cleavage turned out to be 0.812.
As for GGGGGCCACAGCAGAAGCGUUCACGUCGCGACCCCUGUCAGAUUCUGGUGAAUCUGCGAAUUCUGGUGU [G31A C66G], the self-cleavage stood at 0.707.
For the variant GGGGGCCACAGCAGAAGCGUUCACGUCGCGACCCCUGUCACAUUCUGGUGAAUCUGCGAAUUCUGCUGU [G31A G41C], the self-cleavage was determined as 0.349.
Take GGGGGCCACAGCAGAAGCGUUCACGUCGCGACCCCUGUCAUAUUCUGGUGAAUCUGCGAAUUCUGCUGU [G31A G41U]: the self-cleavage turned out to be 0.512.
For GGGGGCCACAGCAGAAGCGUUCACGUCGCGACACCUGUCAGAUUCUGGUGAAUCUGCGAAUUCUGCUGU [G31A C33A], the self-cleavage is 0.266.
As for GGGGGCCACAGCAGAAGCGUUCACGUCGCGACUCCUGUCAGAUUCUGGUGAAUCUGCGAAUUCUGCUGU [G31A C33U], the figure is 0.587; as for GGGGGCCACAGCAGAAGCGUUCACGUCGCGACCCCUCUCAGAUUCUGGUGAAUCUGCGAAUUCUGCUGU [G31A G37C], 0.231; as for GGGGGCCACAGCAGAAGCGUUCACGUCGCGACCCCUAUCAGAUUCUGGUGAAUCUGCGAAUUCUGCUGU [G31A G37A], 0.193.
On to GGGGGCCACAGCAGAAGCGUUCACGUCGCGACCCCUGUCAGAUUCUGGUGAAUGUGCGAAUUCUGCUGU [G31A C54G], for which the self-cleavage was found to be 0.436.
In the case of GGGGGCCACAGCAGAAGCGUUCACGUCGCGACCCCUGUCAGAUUCUGGUGAAUAUGCGAAUUCUGCUGU [G31A C54A], the self-cleavage was 0.489.
With GGGGGCCACAGCAGAAGCGUUCACGUCGCGACCCCUGUCAGAUUCUGGUGAAUUUGCGAAUUCUGCUGU [G31A C54U], the self-cleavage turned out to be 0.793.
Regarding GGGGGCCACAGCAGAAGCGUUCACGUCGCGACCACUGUCAGAUUCUGGUGAAUCUGCGAAUUCUGCUGU [G31A C34A], the self-cleavage was 0.239.
For the variant GGGGGCCACAGCAGAAGCGUUCACGUCGCGACCCCUGUCAGAUUUUGGUGAAUCUGCGAAUUCUGCUGU [G31A C45U], the self-cleavage was 0.888.
Turning to GGGGGCCACAGCAGAAGCGUUCACGUCGCGACCCCUGUCAGAUUGUGGUGAAUCUGCGAAUUCUGCUGU [G31A C45G], the self-cleavage came out at 0.761.
As to GGGGGCCACAGCAGAAGCGUUCACGUCGCGACCCCUGUCAGAUUAUGGUGAAUCUGCGAAUUCUGCUGU [G31A C45A], the self-cleavage was determined as 0.833.
As to GGGGGCCACAGCAGAAGCGUUCACGUCGCGACCCCUGUCAGAUUCUGGUGAAUCUCCGAAUUCUGCUGU [G31A G56C], the self-cleavage was found to be 0.523.
In the case of GGGGGCCACAGCAGAAGCGUUCACGUCGCGACCCCUGUCAGAUUCUGGUGAAUCUUCGAAUUCUGCUGU [G31A G56U], the self-cleavage was 0.767.
Regarding GGGGGCCACAGCAGAAGCGUUCACGUCGCGACCCCUGUCAGAUUCUGGUGAAUCUACGAAUUCUGCUGU [G31A G56A], the self-cleavage is 0.702.
In the case of GGGGGCCACAGCAGAAGCGUUCACGUCGCGACCCCUGUCAGAUUCUGGUCAAUCUGCGAAUUCUGCUGU [G31A G50C], the self-cleavage amounted to 0.84.
As for GGGGGCCACAGCAGAAGCGUUCACGUCGCGACCCCUGUCAGAUUCUGGUAAAUCUGCGAAUUCUGCUGU [G31A G50A], the self-cleavage was 0.95.
With GGGGGCCACAGCAGAAGCGUUCACGUCGCGACCCCUGUCAGAUUCUGGUUAAUCUGCGAAUUCUGCUGU [G31A G50U], the self-cleavage turned out to be 0.889.
Turning to GGGGGCCACAGCAGAAGCGUUCACGUCGCGACCCCUGUCAGAUUCUGGUGAAUCUGCGAAUUUUGCUGU [G31A C63U], the self-cleavage is 0.895.
As to GGGGGCCACAGCAGAAGCGUUCACGUCGCGACCCCUGUCAGAUUCUGGUGAAUCUGCGAAUUGUGCUGU [G31A C63G], the self-cleavage is 0.391.
As to GGGGGCCACAGCAGAAGCGUUCACGUCGCGACCCCUGUCAGAUUCUGGUGAAUCUGUGAAUUCUGCUGU [G31A C57U], the self-cleavage came to 0.34.
For the variant GGGGGCCACAGCAGAAGCGUUCACGUCGCGACCCCUGUCAGAUUCUGGUGAAUCUGAGAAUUCUGCUGU [G31A C57A], the self-cleavage is 0.307.
As to GGGGGCCACAGCAGAAGCGUUCACGUCGCUGCCCCUGUCAGAUUCUGGUGAAUCUGCGAAUUCUGCAGU [G30U U67A], the self-cleavage was found to be 0.735.
In the case of GGGGGCCACAGCAGAAGCGUUCACGUCGCGACCCCUGUCAGAUUCUGUUGAAUCUGCGAAUUCUGCUGU [G31A G48U], the self-cleavage was determined as 0.931.
For the variant GGGGGCCACAGCAGAAGCGUUCACGUCGCGACCCCUGUCAGACUCUGGUGAAUCUGCGAAUUCUGCUGU [G31A U43C], the self-cleavage was determined as 0.601.
Regarding GGGGGCCACAGCAGAAGCGUUCACGUCGCGACCCCUGUCAGAAUCUGGUGAAUCUGCGAAUUCUGCUGU [G31A U43A], the self-cleavage stood at 0.59.
As to GGGGGCCACAGCAGAAGCGUUCACGUCGCGACCCCUGUCAGAGUCUGGUGAAUCUGCGAAUUCUGCUGU [G31A U43G], the self-cleavage worked out at 0.524.
GGGGGCCACAGCAGAAGCGUUCACGUCGCGACCCCUGUCAGAUUCUGGUGAAUCUGCGUAUUCUGCUGU [G31A A59U]: the self-cleavage was found to be 0.441.
As for GGGGGCCACAGCAGAAGCGUUCACGUCGCGACCCCUGUCAGAUUCUGGUGAAUCUGCGCAUUCUGCUGU [G31A A59C], the figure is 0.394.
With GGGGGCCACAGCAGAAGCGUUCACGUCGCGACCCCUGUCAGUUUCUGGUGAAUCUGCGAAUUCUGCUGU [G31A A42U], the self-cleavage stood at 0.638.
For GGGGGCCACAGCAGAAGCGUUCACGUCGCGACCCCUGUCAGGUUCUGGUGAAUCUGCGAAUUCUGCUGU [G31A A42G], the self-cleavage stood at 0.794.
Take GGGGGCCACAGCAGAAGCGUUCACGUCGCGACCCCUGUCAGAUUCUGGUGAAUCUGCGAAUUCUGCUCU [G31A G68C]: the self-cleavage was determined as 1.02.
Take GGGGGCCACAGCAGAAGCGUUCACGUCGCGACCCCUGUCAGAUUCUGGUGAAUCUGCGAAUUCUGCUUU [G31A G68U]: the self-cleavage was determined as 1.
For GGGGGCCACAGCAGAAGCGUUCACGUCGCGACCCCUGUCAGAUUCUGGUGAAUCUGCGAAUUCUGCUAU [G31A G68A], the self-cleavage came to 1.03.
